The text below walks through data of article PMC4939959.

By stoichiometry N is commonly meant the number of molecules, sites or subunits per partner or assembly.

The target in this assay is Prototype foamy virus (PFV) Env glycoprotein, wild type, fully processed (gp18^LP, gp80^SU, gp48^TM), trimeric spike in the viral membrane (Prototype foamy virus (PFV)) (UniProt P14351). As to the kind of experiment: cryo-electron tomography with subtomogram averaging; Env in situ in the membrane of purified virus particles (wt fixed with 4% paraformaldehyde, iNAB, iFuse), plunge-frozen; single spike, 3-fold symmetry seen in the asymmetric average and then enforced; 3.2, 2.9 and 2.8 nm at FSC = 0.5; step: Env protomers in the trimeric spike.

Consider “Prototype foamy virus (PFV) Env glycoprotein, wild type, fully processed (gp18^LP, gp80^SU, gp48^TM), trimeric spike in the viral membrane (from UniProt P14351 1-126; P14351 1-126; P14351 1-126) (complex)”, for which the stoichiometry N is 3.
